Experimental data taken from US20190284243A1, “BINDING PEPTIDES” (University of Copenhagen, priority 2016, published 2019).
Values belong to the substance of their own block, whether it stands above or below them. Bridge positions count the residues as written; N and C are the ends. Square brackets hold non-standard residues; d marks the D form. Ends that are not written are not given here. dPra = C#CC[C@@H](N)C(=O)O

How the values were obtained:
Il10 = Il10 (Homo sapiens, UniProt P22301); assay: Binding of β-bodies with the target compound (Table 1), Il10; conditions: Purpose Il10; tested for binding with the target compound
HRMVRG-PEGA1900 = assay: Binding to hexapeptide beads, green fluorescence associated with the beads; conditions: protein overexpressed in E. coli
Description: The fusion protein as well as EGFP was overexpressed in E. coli and purified from the cell lysate using a PEGA solid support with the hexapeptide partner, […] NO: 4), attached.

Papain = target: T1, Papain (Carica papaya, UniProt P00784); assay: Binding of β-bodies with the target compound (Table 1), Papain; conditions: Purpose Papain; tested for binding with the target compound
T1 sequence (P00784 134-345): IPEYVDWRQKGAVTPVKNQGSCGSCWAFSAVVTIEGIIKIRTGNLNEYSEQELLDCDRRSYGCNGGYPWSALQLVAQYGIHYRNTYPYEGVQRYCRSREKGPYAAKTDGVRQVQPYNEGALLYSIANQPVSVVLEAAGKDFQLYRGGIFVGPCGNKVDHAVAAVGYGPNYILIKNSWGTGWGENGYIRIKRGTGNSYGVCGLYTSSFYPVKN

GFP = GFP 60 nM, both bead types incubated at the same time
Method: GFP (60 nM) was incubated with different β-body beads at the same time, a first type of β-body beads specific for GFP (β-body SEQ ID NO: 1;
[…]) and a second type of β-body beads specific for IL1 (β-body SEQ ID NO: 5).

Il1 = assay: Selectivity assay GFP vs. IL1: beads incubated with ROX-IL1; assay type: binding; conditions: ROX-IL1 100 nM, both bead types incubated at the same time
Description: The same experiment was repeated with IL1.

eGFP = eGFP (Aequorea victoria, UniProt P42212, F64L/H231L/S65T); conditions: Purpose eGFP; tested for binding with the target compound
Il2 = Il2 (Homo sapiens, UniProt P60568); assay: Binding of β-bodies with the target compound (Table 1), Il2; conditions: Purpose Il2; tested for binding with the target compound
Interleukin 2 = Interleukin 2 (Homo sapiens, UniProt P60568); assay: Sandwich binding assay on PEGA beads, IL2 model
Method: For sandwich assays β-bodies identified as described in Examples 1 and 2 were synthesized by standard Fmoc-based solid phase peptide synthesis on biocompatible PEGA-beads (e.g. PEGA1900 which has a porosity allowing penetration of proteins up to 70 kDa). PEGA beads are available from Sigma Aldrich.
The sandwich binding assay was performed as follows: four beads with ligand C prepared as described above were added to 50 μL MilliQ water in a microtiter well containing 100 nM of the peptide D. The well was imaged with an ICX73 fluorescence microscope (Olympus) using a ROX filter cube.
The intensity of the fluorescence is a measure of the concentration of IL2 and the affinity of the interaction. The result obtained after 3 min. incubation is shown in FIG. 10 and after 20 min. incubation in FIG. 1D.

Chain of Interleukin 2 (P60568 21-153, species assumed): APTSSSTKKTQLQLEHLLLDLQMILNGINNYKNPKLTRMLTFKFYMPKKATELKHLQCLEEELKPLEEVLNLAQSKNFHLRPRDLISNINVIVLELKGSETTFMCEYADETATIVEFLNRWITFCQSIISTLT
Chain of Il10 (P22301 19-178, species assumed): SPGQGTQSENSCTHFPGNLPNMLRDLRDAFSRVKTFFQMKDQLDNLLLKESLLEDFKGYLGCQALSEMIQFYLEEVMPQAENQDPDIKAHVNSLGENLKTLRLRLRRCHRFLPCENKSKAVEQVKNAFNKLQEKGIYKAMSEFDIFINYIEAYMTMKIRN
Chain of Il2 (P60568 21-153, species assumed): as the sequence (P60568 21-153, species assumed) above

Binding (Il10): High
Substance: ATNTLTMTWPGRTNTDTFTW (Designed peptide) [SEQ ID NO: 20]

Substance: EGFP: Enhanced Green Fluorescent Protein, overexpressed in E. coli; control without β-body
Binding to HRMVRG-PEGA1900 (green fluorescence associated with the beads) (HRMVRG-PEGA1900): does not

Substance: IHV-abu(N3)-VTTRTMPGHPIAGADA-pra-TG (IHV[dAbu(N3)]VTTRTMPGHPIAGADA[dPra]TG; triazole 4-21 (inferred); also: X4 listed as D-3-azido-2-aminobutanoic acid, mods say azidohomoalanine) [SEQ ID NO: 49]
Binding (Papain): Medium

Substance: TETKTVTITRPKMTWTFTHTVTG (Designed peptide; PEPTIDE (1)..(23) GFP) [SEQ ID NO: 1]
Binding of β-body beads to GFP (GFP): underwent binding
Binding of β-body beads to IL1 (Il1): only β-body beads specific for IL1 underwent binding
Binding (eGFP): High

Binding (Il10): High
Substance: TKTRTYTIPGERYTDTWA (Designed peptide) [SEQ ID NO: 21]

Binding (Il2): High
ROX fluorescence accumulation in the beads (Interleukin 2; ligand 3 beads + 100 nM ligand 4, Interleukin 2 50 nM, 3 and 20 min): positive signal
ROX fluorescence accumulation in the beads (Interleukin 2; ligand 3 beads + 100 nM ligand 4, without IL2 (interaction between the two β-bodies)): no signal
Substance: TRTLTYTEPGITQTKTEA (Designed peptide) [SEQ ID NO: 14]
ROX fluorescence accumulation in the beads (Interleukin 2; ligand 3 beads + 100 nM ligand 4, Interleukin 2 50 nM, 3 and 20 min, listed as D): accumulation of significant ROX fluorescence
ROX fluorescence accumulation in the beads (Interleukin 2; ligand 3 beads + 100 nM ligand 4, without IL2 (interaction between the two β-bodies), listed as D): No fluorescence accumulation over background
